Assay results published in article doi:10.1101/2024.05.17.594765, “Force-activated zyxin assemblies coordinate actin nucleation and crosslinking to orchestrate stress fiber repair” (bioRxiv, 2024).
Blank lines part the entries; values can stand above or below the binder they belong to.

B2: C-terminally Halo-tagged VASP (VASP-Halo) (natural protein, human, UniProt P50552 1-380, looked up)
chain: MSETVICSSRATVMLYDDGNKRWLPAGTGPQAFSRVQIYHNPTANSFRVVGRKMQPDQQVVINCAIVRGVKYNQATPNFHQWRDARQVWGLNFGSKEDAAQFAAGMASALEALEGGGPPPPPALPTWSVPNGPSPEEVEQQKRQQPGPSEHIERRVSNAGGPPAPPAGGPPPPPGPPPPPGPPPPPGLPPSGVPAAAHGAGGGPPPAPPLPAAQGPGGGGAGAPGLAAAIAGAKLRKVSKQEEASGGPTAPKAESGRSGGGGLMEEMNAMLARRRKATQVGEKTPKDESANQEEPEARVPAQSESVRRPWEKNSTTLPRMKSSSSVTTSETQPCTPSSSDYSDLQRVKQELLEEVKKELQKVKEEIIEAFVQELRKRGSP
modifications: Janelia Fluor 549 Halo-ligand conjugated to the Halo tag
notes: VASP (vasodilator-stimulated phosphoprotein), human; also called VASP^WT; VASP-Halo:JF549; source: E. coli Rosetta2(DE3), purified (Ni-NTA, StrepTrap XT, 3C protease, SEC); not shown: Strep-Tag II, N-terminal, cleaved; Halo, C-terminal, kept; 6xHis-Tag, C-terminal, cleaved
B3: C-terminally Halo-tagged full-length zyxin (zyxin-Halo) (natural protein, human, UniProt Q15942 1-572, looked up)
chain: MAAPRPSPAISVSVSAPAFYAPQKKFGPVVAPKPKVNPFRPGDSEPPPAPGAQRAQMGRVGEIPPPPPEDFPLPPPPLAGDGDDAEGALGGAFPPPPPPIEESFPPAPLEEEIFPSPPPPPEEEGGPEAPIPPPPQPREKVSSIDLEIDSLSSLLDDMTKNDPFKARVSSGYVPPPVATPFSSKSSTKPAAGGTAPLPPWKSPSSSQPLPQVPAPAQSQTQFHVQPQPQPKPQVQLHVQSQTQPVSLANTQPRGPPASSPAPAPKFSPVTPKFTPVASKFSPGAPGGSGSQPNQKLGHPEALSAGTGSPQPPSFTYAQQREKPRVQEKQHPVPPPAQNQNQVRSPGAPGPLTLKEVEELEQLTQQLMQDMEHPQRQNVAVNELCGRCHQPLARAQPAVRALGQLFHIACFTCHQCAQQLQGQQFYSLEGAPYCEGCYTDTLEKCNTCGEPITDRMLRATGKAYHPHCFTCVVCARPLEGTSFIVDQANRPHCVPDYHKQYAPRCSVCSEPIMPEPGRDETVRVVALDKNFHMKCYKCEDCGKPLSIEADDNGCFPLDGHVLCRKCHTARAQT
modifications: Janelia Fluor 646 Halo-ligand conjugated to the Halo tag
notes: zyxin, human, full length; pCAG vector with a C-terminal 3C protease cleavage site and eGFP tag; eGFP removed with 3C protease on the resin; also called zyxin^WT; zyxin-Halo:JF646; source: HEK293F, transfected, purified (anti-GFP nanobody resin, 3C protease, Mono Q, SEC); not shown: Halo, C-terminal, kept; eGFP, C-terminal, cleaved

Experiments:
Conditions in all cases: both partners purified
[1] = target: B2; experiment: droplet co-partitioning (iSIM fluorescence microscopy); zyxin construct, VASP and ɑ-actinin mixed together in MBOS with 3% PEG 8K, room temperature; small clusters also without PEG 8K at native cellular concentrations
[2] = target: B3; experiment: as above
[3] = target: T1, C-terminally Halo-tagged ɑ-actinin-1 (ɑ-actinin-Halo) (human, UniProt P12814 1-892, Janelia Fluor 549 Halo-ligand (TIRF assays) or Alexa Fluor 488 Halo-ligand (droplet assays) conjugated to the Halo tag; unlabeled in the bundle assays); experiment: TIRF microscopy, force reconstitution assay with purified proteins; immobilised myosins, 30% ATTO 488-labeled F-actin, 25 nM (or 250 nM) zyxin-Halo:JF646 and 50 nM ɑ-actinin-Halo:JF549 in MBOS, +ATP (myosin forces); room temperature
T1 construct: ɑ-actinin-1, human; also called ɑ-actinin^WT; ɑ-actinin-Halo:JF549; source: E. coli Rosetta2(DE3), purified (Ni-NTA, TEV protease, HiTrap Q HP, SEC); not shown: 6xHis-Tag, N-terminal, cleaved; Halo, C-terminal, kept
T1 sequence (P12814 whole entry): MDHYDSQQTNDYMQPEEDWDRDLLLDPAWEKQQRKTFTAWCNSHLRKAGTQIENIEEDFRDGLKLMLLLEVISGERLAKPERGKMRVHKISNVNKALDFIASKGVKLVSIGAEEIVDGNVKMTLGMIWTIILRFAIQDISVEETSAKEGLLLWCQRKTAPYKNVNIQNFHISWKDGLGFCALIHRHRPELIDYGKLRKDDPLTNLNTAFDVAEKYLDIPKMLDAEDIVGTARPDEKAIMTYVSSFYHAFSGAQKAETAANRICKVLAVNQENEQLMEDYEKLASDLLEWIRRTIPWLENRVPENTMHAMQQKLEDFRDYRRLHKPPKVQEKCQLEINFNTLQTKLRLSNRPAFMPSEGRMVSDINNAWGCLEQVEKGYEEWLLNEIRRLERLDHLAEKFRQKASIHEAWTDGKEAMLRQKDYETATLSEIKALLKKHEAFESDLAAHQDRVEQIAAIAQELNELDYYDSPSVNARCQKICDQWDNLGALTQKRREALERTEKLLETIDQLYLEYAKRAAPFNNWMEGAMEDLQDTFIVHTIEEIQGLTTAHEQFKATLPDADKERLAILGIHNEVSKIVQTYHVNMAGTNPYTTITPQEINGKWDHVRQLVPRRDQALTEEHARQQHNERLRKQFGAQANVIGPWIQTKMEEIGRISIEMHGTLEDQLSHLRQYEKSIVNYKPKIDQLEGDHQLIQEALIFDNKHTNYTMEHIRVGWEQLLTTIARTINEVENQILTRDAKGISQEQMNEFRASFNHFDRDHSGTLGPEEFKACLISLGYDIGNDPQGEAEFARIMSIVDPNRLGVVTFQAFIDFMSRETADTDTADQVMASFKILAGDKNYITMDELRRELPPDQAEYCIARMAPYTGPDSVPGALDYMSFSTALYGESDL

- binding result [1]: binds
B1: minimal zyxin construct with the N-terminal binding motifs (amino acids 1–160), Halo-tagged (domain or fragment, human, UniProt Q15942 1-160, looked up)
chain: MAAPRPSPAISVSVSAPAFYAPQKKFGPVVAPKPKVNPFRPGDSEPPPAPGAQRAQMGRVGEIPPPPPEDFPLPPPPLAGDGDDAEGALGGAFPPPPPPIEESFPPAPLEEEIFPSPPPPPEEEGGPEAPIPPPPQPREKVSSIDLEIDSLSSLLDDMTK
modifications: Janelia Fluor 646 Halo-ligand conjugated to the Halo tag
notes: zyxin, human, amino acids 1–160; also called zyxin^N-term; source: HEK293F, transfected, purified (anti-GFP nanobody resin, 3C protease, Mono Q, SEC); not shown: Halo, C-terminal, kept; eGFP, C-terminal, cleaved

Binder: B2
- binding result [2]: binds

Binder: B3
- binding result [3]: binds
